What was measured:
[1] = molecular target: Cas5c (Desulfovibrio vulgaris str. Hildenborough); assay: ITC
[2] = molecular target: Cas7 (Desulfovibrio vulgaris str. Hildenborough); assay: ITC

## Cas7 (natural protein)
[1]
  Kd: 3.8 µM
  dH: 5100 cal/mol
  stoichiometry N: 0.59

## Cas8c (natural protein)
[2]
  Kd: 6 µM
  dH: 5200 cal/mol
[1]
  Kd: 3.9 µM
  dH: 4800 cal/mol
  stoichiometry N: 0.57

From publication PMC5111854
